Assays:
Experiment in all cases: FRET or BRET; FRET/FLIM: EGFP fluorescence lifetime of EKAR constructs (WW domain and peptide on one chain) in fixed, mounted COS cells; serum in the medium
Settings in all cases: partners not purified
[1] = target: T1, PSD-95 T19 peptide of the EKAR construct (UniProt P31016 14-24)
T1 construct: PSD-95 peptide around T19 put in place of the CDC25C peptide; 11 residues, the text says 10-mer; On one chain with m14 (see its note); also called EKAR T19; EKAR_(cyto)T19; source: COS cells, transfected, in cells
T1 peptide (looked up): YQDEDTPPLEH

[2] = target: T2, PSD-95 S25 peptide of the EKAR construct (UniProt P31016 20-30)
T2 construct: PSD-95 peptide around S25 put in place of the CDC25C peptide; On one chain with m14 (see its note); also called EKAR S25; source: COS cells, transfected, in cells
T2 peptide (looked up): PPLEHSPAHLP

[3] = target: T3, PSD-95 S35 peptide of the EKAR construct (UniProt P31016 30-40)
T3 construct: PSD-95 peptide around S35 put in place of the CDC25C peptide; On one chain with m14 (see its note); also called EKAR S35; source: COS cells, transfected, in cells
T3 peptide (looked up): PNQANSPPVIV

EGFP fluorescence lifetime [1]: 1.72 ns
EGFP fluorescence lifetime [2]: 1.69 ns
EGFP fluorescence lifetime [3]: 1.81 ns
B1: Pin1 WW domain of the EKAR construct (domain or fragment, UniProt Q13526 5-39, looked up)
chain: EKLPPGWEKRMSRSSGRVYYFNHITNASQWERPSG
notes: Pin1 WW domain as in the EKAR construct (Harvey et al., 2008); source: COS cells, transfected, in cells
